The results in this text go back to patent publication US5833943, “Minimum recognition unit of a pem mucin tandem repeat specific monoclonal antibody” (Cancer Therapeutics Limited, dated 1998).

No end group written: not given here.

This experiment deals with mucin molecule associated with epithelial tumours (Homo sapiens (Human), UniProt P15941). The experiment is described as follows: synthetic CDR peptides of NM-2 VH; method not told at this place.

In the case of REPPTRTFAYWG (also: I125 label, position not given here) [peptide REPPTRTFAYWG], the binding result is listed as “binds”.
